In article PMC12151148 (2024) one finds Kd data, which are given here for three molecules.

By Kd is commonly meant the concentration at which binding is half-saturated. Low readings indicate higher affinity, high ones lower affinity.

B1: LGN-TPR (1–409) (domain or fragment)
chain: MREDHSFHVRYRMEASCLELALEGERLCKSGDCRAGVSFFEAAVQVGTEDLKTLSAIYSQLGNAYFYLHDYAKALEYHHHDLTLARTIGDQLGEAKASGNLGNTLKVLGNFDEAIVCCQRHLDISRELNDKVGEARALYNLGNVYHAKGKSFGCPGPQDTGEFPEDVRNALQAAVDLYEENLSLVTALGDRAAQGRAFGNLGNTHYLLGNFRDAVIAHEQRLLIAKEFGDKAAERRAYSNLGNAYIFLGEFETASEYYKKTLLLARQLKDRAVEAQSCYSLGNTYTLLQDYEKAIDYHLKHLAIAQELKDRIGEGRACWSLGNAYTALGNHDQAMHFAEKHLEISREVGDKSGELTARLNLSDLQMVLGLSYSTNNSMMSENIEIDGSLHGAGAKLGRRHSMENLELMK
B3: Insc (18–66) (domain or fragment)
chain: WGLWGAQESRRLCCVGPDRCGQALLQIGINMMALPGGRHLDSVPLQEQR

The test “Insc (18–66)” deals with B3. Briefly: ITC. Background: Isothermal titration calorimetry measures the heat released or taken up as one component is titrated into another.
The next test addresses T1, NuMA (1886–1912) (human, UniProt Q14980-2 1886-1912).
T1 chain: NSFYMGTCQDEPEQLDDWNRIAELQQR
Briefly: ITC.

A further test addresses T2, AGS3-GL1234 (470–631) (mouse).
T2 chain: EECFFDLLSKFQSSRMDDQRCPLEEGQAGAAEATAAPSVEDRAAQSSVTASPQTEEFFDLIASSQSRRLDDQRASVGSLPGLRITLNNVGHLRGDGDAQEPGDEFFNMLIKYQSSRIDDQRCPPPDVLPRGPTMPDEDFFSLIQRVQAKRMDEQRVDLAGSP
In words: ITC.

For a further test, the target named is T3, LGN GL3 motif (mouse).
T3 chain: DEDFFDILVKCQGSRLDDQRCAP
Briefly: ITC.

For a further test, the target named is T4, LGN GL4 motif (mouse).
T4 chain: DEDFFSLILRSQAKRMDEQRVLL
In words: ITC.

The target in the next test is T5, LGN-GL1234 (483–650) (mouse).
T5 chain: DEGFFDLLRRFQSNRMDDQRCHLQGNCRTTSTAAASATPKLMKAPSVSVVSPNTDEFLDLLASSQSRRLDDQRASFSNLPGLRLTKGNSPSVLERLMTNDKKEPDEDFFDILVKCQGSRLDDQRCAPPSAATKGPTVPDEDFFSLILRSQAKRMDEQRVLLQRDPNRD
Briefly: ITC.

The target in the test “LGN-TPR (1–409)” is B1. In words: ITC.
For the next test, the target named is T6, AGS3-L (−23–405) (mouse).
T6 chain: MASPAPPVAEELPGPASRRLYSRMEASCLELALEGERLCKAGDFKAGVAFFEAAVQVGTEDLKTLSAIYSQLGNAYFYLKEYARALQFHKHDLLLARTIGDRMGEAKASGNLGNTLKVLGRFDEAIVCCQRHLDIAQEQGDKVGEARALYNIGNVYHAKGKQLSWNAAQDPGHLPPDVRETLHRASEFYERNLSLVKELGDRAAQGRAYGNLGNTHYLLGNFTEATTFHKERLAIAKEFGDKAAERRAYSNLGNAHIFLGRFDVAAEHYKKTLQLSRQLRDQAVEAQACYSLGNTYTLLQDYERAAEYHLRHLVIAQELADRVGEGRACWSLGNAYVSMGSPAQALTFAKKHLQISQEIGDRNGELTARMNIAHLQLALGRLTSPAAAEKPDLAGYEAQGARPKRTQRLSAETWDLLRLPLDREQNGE
Briefly: ITC.

The target in the next test is T7, FL-AGS3-4E (mouse, UniProt Q6IR34).
T7 sequence (Q6IR34 whole entry, looked up): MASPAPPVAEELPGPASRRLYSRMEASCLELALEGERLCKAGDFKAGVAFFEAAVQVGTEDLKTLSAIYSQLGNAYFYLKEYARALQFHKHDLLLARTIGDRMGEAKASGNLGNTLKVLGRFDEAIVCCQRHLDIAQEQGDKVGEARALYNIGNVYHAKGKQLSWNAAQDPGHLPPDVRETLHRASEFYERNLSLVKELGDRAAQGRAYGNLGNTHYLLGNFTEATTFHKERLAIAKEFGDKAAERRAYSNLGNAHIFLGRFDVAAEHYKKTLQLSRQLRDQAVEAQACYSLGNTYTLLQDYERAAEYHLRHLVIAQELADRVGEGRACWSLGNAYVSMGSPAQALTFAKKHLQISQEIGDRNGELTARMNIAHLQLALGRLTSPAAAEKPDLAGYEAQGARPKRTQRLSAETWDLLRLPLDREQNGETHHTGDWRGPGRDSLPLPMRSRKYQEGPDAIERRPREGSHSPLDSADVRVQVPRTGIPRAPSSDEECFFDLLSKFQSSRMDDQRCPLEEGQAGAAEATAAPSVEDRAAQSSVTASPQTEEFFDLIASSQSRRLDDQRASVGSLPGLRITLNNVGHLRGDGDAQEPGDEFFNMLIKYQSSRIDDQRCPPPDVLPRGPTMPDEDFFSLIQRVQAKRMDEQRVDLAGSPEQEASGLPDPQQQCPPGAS
In words: ITC.

A further test concerns the target T8, FL-LGN-4E (mouse, UniProt Q8VDU0).
T8 sequence (Q8VDU0 whole entry, looked up): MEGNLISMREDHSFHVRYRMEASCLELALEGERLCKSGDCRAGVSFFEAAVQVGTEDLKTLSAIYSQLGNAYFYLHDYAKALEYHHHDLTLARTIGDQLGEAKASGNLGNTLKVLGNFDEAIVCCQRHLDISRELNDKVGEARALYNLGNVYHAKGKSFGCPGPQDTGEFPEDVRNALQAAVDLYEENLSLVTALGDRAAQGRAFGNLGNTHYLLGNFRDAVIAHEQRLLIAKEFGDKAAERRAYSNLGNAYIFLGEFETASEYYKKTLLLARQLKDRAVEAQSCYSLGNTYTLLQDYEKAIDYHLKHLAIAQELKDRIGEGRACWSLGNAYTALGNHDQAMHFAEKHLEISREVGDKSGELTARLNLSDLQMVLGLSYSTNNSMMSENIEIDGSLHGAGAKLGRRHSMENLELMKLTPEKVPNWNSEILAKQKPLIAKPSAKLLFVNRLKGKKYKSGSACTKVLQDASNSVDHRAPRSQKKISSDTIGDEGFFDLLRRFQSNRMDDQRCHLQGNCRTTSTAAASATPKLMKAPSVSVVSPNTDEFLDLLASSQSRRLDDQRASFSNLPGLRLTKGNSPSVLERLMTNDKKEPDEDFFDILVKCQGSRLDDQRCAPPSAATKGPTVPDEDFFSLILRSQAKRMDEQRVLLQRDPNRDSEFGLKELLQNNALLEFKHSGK
In words: ITC.

The target in the next test is T9, AGS3-TPR (1–405) (mouse).
T9 chain: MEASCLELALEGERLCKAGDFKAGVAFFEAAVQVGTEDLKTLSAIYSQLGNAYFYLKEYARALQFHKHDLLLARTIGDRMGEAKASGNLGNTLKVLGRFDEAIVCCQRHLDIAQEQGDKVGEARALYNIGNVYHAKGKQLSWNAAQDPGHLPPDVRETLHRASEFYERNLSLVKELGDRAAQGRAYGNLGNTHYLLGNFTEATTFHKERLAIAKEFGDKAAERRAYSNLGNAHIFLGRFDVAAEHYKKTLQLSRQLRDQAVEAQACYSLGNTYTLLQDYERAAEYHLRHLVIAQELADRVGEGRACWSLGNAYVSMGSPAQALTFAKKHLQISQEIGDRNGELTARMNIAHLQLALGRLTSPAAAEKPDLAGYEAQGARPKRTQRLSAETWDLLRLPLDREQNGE
Briefly: ITC; AGS3-TPR premixed with NuMA (1886–1912).

Consider B1, for which the figures for the Kd with Insc (18–66) and with NuMA (1886–1912) were 980 nM and 630 nM, respectively.

B2: Gαi3⋅GDP (natural protein)
chain: MGCTLSAEDKAAVERSKMIDRNLREDGEKAAKEVKLLLLGAGESGKSTIVKQMKIIHEDGYSEDECKQYKVVVYSNTIQSIIAIIRAMGRLKIDFGEAARADDARQLFVLAGSAEEGVMTPELAGVIKRLWRDGGVQACFSRSREYQLNDSASYYLNDLDRISQSNYIPTQQDVLRTRVKTTGIVETHFTFKDLYFKMFDVGGQRSERKKWIHCFEGVTAIIFCVALSDYDLVLAEDEEMNRMHESMKLFDSICNNKWFTETSIILFLNKKDLFEEKIKRSPLTICYPEYTGSNTYEEAAAYIQCQFEDLNRRKDTKEIYTHFTCATDTKNVQFVFDAVTDVIIKNNLKECGLY
For B2, the Kd with AGS3-GL1234 (470–631) amounted to 280 nM; with LGN GL3 motif, 42 nM; with LGN GL4 motif it was 190 nM; with LGN-GL1234 (483–650), 260 nM.

Regarding B3, the Kd with LGN-TPR (1–409) turned out to be 980 nM; with AGS3-L (−23–405) it was 870 nM; in the test with FL-AGS3-4E, 290 nM; with FL-LGN-4E, 580 nM; with AGS3-TPR (1–405), 12700 nM.
